Results from US6977154, “Nucleic acid binding proteins” (Gendaq Limited).
Substitutions are numbered along the chain they refer to.

Columns and labels:
Assay in all cases: phage ELISA, apparent Kd; PBS, 50 uM ZnCl2, 20 C
Details in all cases: protein: virion; tags: phage fd pIII fusion (Fd-Tet-SN), Zif268 framework; label: 5' biotin
zfHAE(M) [1] = biological target: zfHAE(M)
Experimental: (§1) Binding sites are synthesised as described above, including biotinylated sites where 5-meC (M) is replaced by a C or T (with appropriate bases in the complementary strand). Two-fold dilutions of DNA are added to separate wells of a streptavidin-coated microtitre plate (Boehringer Mannheim) in 50 µl PBS containing 50 µM ZnCl_2 (PBS/Zn). Phage solution (bacterial culture supernatant diluted 1:10 in PBS/Zn containing 2% (w/v) fat-free dried milk (Marvel), 1% (v/v) Tween and 20 µg/ml sonicated salmon sperm DNA) are applied to each well (50 µl/well). Binding is allowed to proceed for one hour at 20° C. Unbound phage are removed by washing 6 times with PBS/Zn containing 1% (v/v) Tween, then 3 times with PBS/Zn. Bound phage are detected by ELISA using horseradish peroxidase-conjugated anti-M13 IgG (Pharmacia Biotech) and the colourimetric signal quantitated using SOFTMAX 2.32 (Molecular Devices).
(§2) Zinc finger phage binding for each of the above clones is titrated against different amounts of methylated and unmethylated DNA oligos to derive values of the apparent dissociation constants (K_ds) for either DNA binding site (see FIGS. 4 and 5). The apparent Kd of each clone for the optimally bound DNA site(s) is in the nanomolar range, similar to that of wild-type Zif268 DNA-binding domain for its preferred target site using this assay. Clones zfHAE(M) (Table 1 F1: SEQ ID NO.:20; F2: SEQ ID NO.:25; F3: SEQ ID NO.:30) and zfHHA(M) (Table 1 F1: SEQ ID NO.:21; F2: SEQ ID NO.:26; F3: SEQ ID NO.:31) preferentially bind their respective DNA target sites when 5-meC is incorporated into the correct nucleotide positions, and discriminated against the unmethylated DNA sites by factors of approximately 20-fold and 5-fold, respectively.

zfHAE(Y) = biological target: zfHAE(Y)
Experimental: as §1, §2

zfHAE(M) [2] = biological target: zfHAE(M); remark: listed apart in the source
Experimental: as §1

zfHHA(M) = biological target: zfHHA(M)
Experimental: as §1, §2

zfHHA(Y) = biological target: zfHHA(Y)
Experimental: as §1, §2

B1: HAE(M) G-GGMC-GGCG (dsDNA)
DNA 1: TATAGTGGGCCGGCGTGTCACAGTCAGTCCACACACGTC
DNA 2: GACGTGTGTGGACTGACTGTGACACGCCGGCCCACTATA
modifications: 5mC at M (G-GGMC-GGCG), both strands [10 (5mC)]
In the case of B1, the Kd (zfHAE(M) [1]) is reported as 2 nM and the Kd (zfHAE(Y)) is reported as 6.3 nM.

B2: HAE(T) G-GGTC-GGCG (dsDNA)
DNA 1: B1 DNA 1 with C10T
DNA 2: B1 DNA 2 with G30A
B2 showed a Kd (zfHAE(M) [2]) of 27 nM.

B3: HHA(M) G-GMGC-GGCG (dsDNA)
DNA 1: B1 DNA 1 with G9C, C10G
DNA 2: B1 DNA 2 with G30C, C31G
modifications: 5mC at M (G-GMGC-GGCG), both strands [5mC at 9 (top strand); bottom-strand 5mC opposite G10]
With B3 the Kd (zfHHA(M)) was 14 nM and the Kd (zfHHA(Y)) was 14 nM.
